{"source": "patent US20220251595A1", "about": "“ENGINEERED ATRLP23 PATTERN RECOGNITION RECEPTORS AND METHODS OF USE” (priority 2019, published 2022)", "molecules": {"B1": {"name": "AtRLP23-AtSOBIR1-3×FLAG: AtRLP23 apoplastic and eJM domains, AtSOBIR1 TM and cytoplasmic domains, 3×FLAG; SEQ ID NO: 29, 30 (protein)", "chain": "MSKALLHLHFLSLFLLCCVCHSSIFTLNFHFTGIVACRPHQIQAFTKFTNEFDTRGCNNSDTFNGVWCDNSTGAVAVLQLRKCLSGTLKSNSSLFGFHQLRYVDLQNNNLTSSSLPSGFGNLKRLEGLFLSSNGFLGQVPSSFSNLTMLAQLDLSYNKLTGSFPLVRGLRKLIVLDLSYNHFSGTLNPNSSLFELHQLRYLNLAFNNFSSSLPSKFGNLHRLENLILSSNGFSGQVPSTISNLTRLTKLYLDQNKLTSSFPLVQNLTNLYELDLSYNKFFGVIPSSLLTLPFLAHLALRENNLAGSVEVSNSSTSSRLEIMYLGSNHFEGQILEPISKLINLKHLDLSFLNTSYPIDLKLFSSLKSLRSLDLSGNSISSASLSSDSYIPLTLEMLTLRHCDINEFPNILKTLKELVYIDISNNRMKGKIPEWLWSLPLLQSVTLGNNYFTGFQGSAEILVNSSVLLLYLDSNNFEGALPDLPLSIKGFGVASNSFTSEIPLSICNRSSLAAIDLSYNNFTGPIPPCLRNLELVYLRNNNLEGSIPDALCDGASLRTLDVSHNRLTGKLPRSFVNCSSLKFLSVINNRIEDTFPFWLKALPNLQVLTLRSNRFYGPISPPHQGPLGFPELRIFEISDNKFTGSLPPNYFVNWKASSRTMNQDGGLYMVYEEKLFDEGGYGYTDALDLQYKGLHMEQAKALTSYAAIDFSGNRLEGQIPESIGLLKALIAVNISNNAFTGHIPLSMANLENLESLDMSRNQLSGTIPNGLGSISFLAYINVSHNQLTGEIPQGTQITGQSKSSFEGNAGLCGLPLKESCFGTGAPPMYHQKQEDKEEEEEEEEEEEEVLNGRVAAWILGFVVGAIGGTISGFVFSVLFKLIIQAIRGSEKPPGPSIFSPLIKKAEDLAFLENEEALASLEIIGRGGCGEVFKAELPGSNGKIIAVKKVIQPPKDADELTDEDSKFLNKKMRQIRSEINTVGHIRHRNLLPLLAHVSRPECHYLVYEYMEKGSLQDILTDVQAGNQELMWPARHKIALGIAAGLEYLHMDHNPRIIHRDLKPANVLLDDDMEARISDFGLAKAMPDAVTHITTSHVAGTVGYIAPEFYQTHKFTDKCDIYSFGVILGILVIGKLPSDEFFQHTDEMSLIKWMRNIITSENPSLAIDPKLMDQGFDEQMLLVLKIACYCTLDDPKQRPNSKDVRTMLSQIKHSDYKDHDGDYKDHDLDAAAADYKDDDDK", "modifications": "Fusion protein"}, "B2": {"name": "AtRLP23+TM-AtEFR-3×FLAG: AtRLP23 apoplastic, eJM and TM domains, AtEFR cytoplasmic domain, 3×FLAG; SEQ ID NO: 33, 34 (protein)", "chain": "MSKALLHLHFLSLFLLCCVCHSSIFTLNFHFTGIVACRPHQIQAFTKFTNEFDTRGCNNSDTFNGVWCDNSTGAVAVLQLRKCLSGTLKSNSSLFGFHQLRYVDLQNNNLTSSSLPSGFGNLKRLEGLFLSSNGFLGQVPSSFSNLTMLAQLDLSYNKLTGSFPLVRGLRKLIVLDLSYNHFSGTLNPNSSLFELHQLRYLNLAFNNFSSSLPSKFGNLHRLENLILSSNGFSGQVPSTISNLTRLTKLYLDQNKLTSSFPLVQNLTNLYELDLSYNKFFGVIPSSLLTLPFLAHLALRENNLAGSVEVSNSSTSSRLEIMYLGSNHFEGQILEPISKLINLKHLDLSFLNTSYPIDLKLFSSLKSLRSLDLSGNSISSASLSSDSYIPLTLEMLTLRHCDINEFPNILKTLKELVYIDISNNRMKGKIPEWLWSLPLLQSVTLGNNYFTGFQGSAEILVNSSVLLLYLDSNNFEGALPDLPLSIKGFGVASNSFTSEIPLSICNRSSLAAIDLSYNNFTGPIPPCLRNLELVYLRNNNLEGSIPDALCDGASLRTLDVSHNRLTGKLPRSFVNCSSLKFLSVINNRIEDTFPFWLKALPNLQVLTLRSNRFYGPISPPHQGPLGFPELRIFEISDNKFTGSLPPNYFVNWKASSRTMNQDGGLYMVYEEKLFDEGGYGYTDALDLQYKGLHMEQAKALTSYAAIDFSGNRLEGQIPESIGLLKALIAVNISNNAFTGHIPLSMANLENLESLDMSRNQLSGTIPNGLGSISFLAYINVSHNQLTGEIPQGTQITGQSKSSFEGNAGLCGLPLKESCFGTGAPPMYHQKQEDKEEEEEEEEEEEEVLNGRAVAIGYGSGLLLGLAIAQVIASYKRKKKNNASDGNPSDSTTLGMFHEKVSYEELHSATSRFSSTNLIGSGNFGNVFKGLLGPENKLVAVKVLNLLKHGATKSFMAECETFKGIRHRNLVKLITVCSSLDSEGNDFRALVYEFMPKGSLDMWLQLEDLERVNDHSRSLTPAEKLNIAIDVASALEYLHVHCHDPVAHCDIKPSNILLDDDLTAHVSDFGLAQLLYKYDRESFLNQFSSAGVRGTIGYAAPEYGMGGQPSIQGDVYSFGILLLEMFSGKKPTDESFAGDYNLHSYTKSILSGCTSSGGSNAIDEGLRLVLQVGIKCSEEYPRDRMRTDEAVRELISIRSKFFSSKTTITESPRDAPQSSPQEWMLNTDMHTMASDYKDHDGDYKDHDLDAAAADYKDDDDK", "modifications": "Fusion protein"}, "B3": {"name": "AtRLP23-OsXA21-3×FLAG: AtRLP23 apoplastic and eJM domains, OsXA21 TM and cytoplasmic domains, 3×FLAG; SEQ ID NO: 21, 22 (protein)", "chain": "MSKALLHLHFLSLFLLCCVCHSSIFTLNFHFTGIVACRPHQIQAFTKFTNEFDTRGCNNSDTFNGVWCDNSTGAVAVLQLRKCLSGTLKSNSSLFGFHQLRYVDLQNNNLTSSSLPSGFGNLKRLEGLFLSSNGFLGQVPSSFSNLTMLAQLDLSYNKLTGSFPLVRGLRKLIVLDLSYNHFSGTLNPNSSLFELHQLRYLNLAFNNFSSSLPSKFGNLHRLENLILSSNGFSGQVPSTISNLTRLTKLYLDQNKLTSSFPLVQNLTNLYELDLSYNKFFGVIPSSLLTLPFLAHLALRENNLAGSVEVSNSSTSSRLEIMYLGSNHFEGQILEPISKLINLKHLDLSFLNTSYPIDLKLFSSLKSLRSLDLSGNSISSASLSSDSYIPLTLEMLTLRHCDINEFPNILKTLKELVYIDISNNRMKGKIPEWLWSLPLLQSVTLGNNYFTGFQGSAEILVNSSVLLLYLDSNNFEGALPDLPLSIKGFGVASNSFTSEIPLSICNRSSLAAIDLSYNNFTGPIPPCLRNLELVYLRNNNLEGSIPDALCDGASLRTLDVSHNRLTGKLPRSFVNCSSLKFLSVINNRIEDTFPFWLKALPNLQVLTLRSNRFYGPISPPHQGPLGFPELRIFEISDNKFTGSLPPNYFVNWKASSRTMNQDGGLYMVYEEKLFDEGGYGYTDALDLQYKGLHMEQAKALTSYAAIDFSGNRLEGQIPESIGLLKALIAVNISNNAFTGHIPLSMANLENLESLDMSRNQLSGTIPNGLGSISFLAYINVSHNQLTGEIPQGTQITGQSKSSFEGNAGLCGLPLKESCFGTGAPPMYHQKQEDKEEEEEEEEEEEEVLNGRFPVLPISVSLAAALAILSSLYLLITWHKRTKKGAPSRTSMKGHPLVSYSQLVKATDGFAPTNLLGSGSFGSVYKGKLNIQDHVAVKVLKLENPKALKSFTAECEALRNMRHRNLVKIVTICSSIDNRGNDFKAIVYDFMPNGSLEDWIHPETNDQADQRHLNLHRRVTILLDVACALDYLHRHGPEPVVHCDIKSSNVLLDSDMVAHVGDFGLARILVDGTSLIQQSTSSMGFIGTIGYAAPEYGVGLIASTHGDIYSYGILVLEIVTGKRPTDSTFRPDLGLRQYVELGLHGRVTDVVDTKLILDSENWLNSTNNSPCRRITECIVWLLRLGLSCSQELPSSRTPTGDIIDELNAIKQNLSGLFPVCEGGSLEFSDYKDHDGDYKDHDLDAAAADYKDDDDK", "modifications": "Fusion protein"}, "B4": {"name": "AtRLP23-AtEFR-3×FLAG: AtRLP23 apoplastic and eJM domains, AtEFR TM and cytoplasmic domains, 3×FLAG; SEQ ID NO: 17, 18 (protein)", "chain": "MSKALLHLHFLSLFLLCCVCHSSIFTLNFHFTGIVACRPHQIQAFTKFTNEFDTRGCNNSDTFNGVWCDNSTGAVAVLQLRKCLSGTLKSNSSLFGFHQLRYVDLQNNNLTSSSLPSGFGNLKRLEGLFLSSNGFLGQVPSSFSNLTMLAQLDLSYNKLTGSFPLVRGLRKLIVLDLSYNHFSGTLNPNSSLFELHQLRYLNLAFNNFSSSLPSKFGNLHRLENLILSSNGFSGQVPSTISNLTRLTKLYLDQNKLTSSFPLVQNLTNLYELDLSYNKFFGVIPSSLLTLPFLAHLALRENNLAGSVEVSNSSTSSRLEIMYLGSNHFEGQILEPISKLINLKHLDLSFLNTSYPIDLKLFSSLKSLRSLDLSGNSISSASLSSDSYIPLTLEMLTLRHCDINEFPNILKTLKELVYIDISNNRMKGKIPEWLWSLPLLQSVTLGNNYFTGFQGSAEILVNSSVLLLYLDSNNFEGALPDLPLSIKGFGVASNSFTSEIPLSICNRSSLAAIDLSYNNFTGPIPPCLRNLELVYLRNNNLEGSIPDALCDGASLRTLDVSHNRLTGKLPRSFVNCSSLKFLSVINNRIEDTFPFWLKALPNLQVLTLRSNRFYGPISPPHQGPLGFPELRIFEISDNKFTGSLPPNYFVNWKASSRTMNQDGGLYMVYEEKLFDEGGYGYTDALDLQYKGLHMEQAKALTSYAAIDFSGNRLEGQIPESIGLLKALIAVNISNNAFTGHIPLSMANLENLESLDMSRNQLSGTIPNGLGSISFLAYINVSHNQLTGEIPQGTQITGQSKSSFEGNAGLCGLPLKESCFGTGAPPMYHQKQEDKEEEEEEEEEEEEVLNGRVVSGICIGIASLLLIIIVASLCWFMKRKKKNNASDGNPSDSTTLGMFHEKVSYEELHSATSRFSSTNLIGSGNFGNVFKGLLGPENKLVAVKVLNLLKHGATKSFMAECETFKGIRHRNLVKLITVCSSLDSEGNDFRALVYEFMPKGSLDMWLQLEDLERVNDHSRSLTPAEKLNIAIDVASALEYLHVHCHDPVAHCDIKPSNILLDDDLTAHVSDFGLAQLLYKYDRESFLNQFSSAGVRGTIGYAAPEYGMGGQPSIQGDVYSFGILLLEMFSGKKPTDESFAGDYNLHSYTKSILSGCTSSGGSNAIDEGLRLVLQVGIKCSEEYPRDRMRTDEAVRELISIRSKFFSSKTTITESPRDAPQSSPQEWMLNTDMHTMASDYKDHDGDYKDHDLDAAAADYKDDDDK", "modifications": "Fusion protein"}}, "data": [{"test_system": "corn protoplasts", "assay": "Calcium burst in transiently transfected corn protoplasts, R-GECO1.2 fluorescence reporter", "type": "cell-based, Zea mays", "conditions": "Example 3, FIG. 4; 1 μM PpNLP20; 40 minutes; 384-well", "text": "Following ligand (also known as elicitor) binding, PRRs are activated and induce a transient increase of cytosolic Ca^2+ concentration as part of a PTI response. […] In a high-throughput method, the kinetics of PRR-dependent transient variation of cytosolic Ca^2+ concentration can be measured with a fluorimeter or luminometer and in microplate formats of 96 or 384 wells.\nFluorescence was monitored using a fluorimeter equipped with a 100 Hz xenon flash lamp with excitation at 556 nm and emission measured at 585 nm for 100 ms, every 22.6 seconds for 42 minutes.\nAll of the AtRLP23 constructs have an operably linked 2×35S+Ω promoter construct (SEQ ID NO: 72) and an operably linked rbcS terminator (SEQ ID NO: 73)\nFluorescence was monitored using a fluorimeter equipped with a 100 Hz xenon flash lamp with excitation at 556 nm and emission measured at 585 nm for 30 ms, every 20.2 seconds for 40 minutes. For each fluorescence measurement, the transient change in R-GECO1.2 fluorescence (ΔF) are calculated from background corrected intensity values as (F-Fo), where F represents the average fluorescence intensity of the a batch of protoplasts treated with elicitor, and Fo represents the average fluorescence intensity of the same batch of protoplasts treated with a control solution that lacks the elicitor but is otherwise identical or essentially identical in composition to the solution comprising the elicitor.", "values": [{"molecule": "B1", "responsiveness to PpNLP20 treatment compared to AtRLP23-3×FLAG (total transient increase of fluorescence)": "reduced responsiveness"}, {"molecule": "B2", "responsiveness to PpNLP20 treatment compared to AtRLP23-3×FLAG (total transient increase of fluorescence)": "comparable responsiveness"}, {"molecule": "B3", "responsiveness to PpNLP20 treatment compared to AtRLP23-3×FLAG (total transient increase of fluorescence)": "increased responsiveness"}, {"molecule": "B4", "responsiveness to PpNLP20 treatment compared to AtRLP23-3×FLAG (total transient increase of fluorescence)": "increased responsiveness"}]}]}
